Source: patent US20260098059A1 (ENDOMET BIOSCIENCES, published 2026)
“And” between values parts separate entries of the source, which are not always exact repeats. Identical values can stand only once. Bridges are numbered along the chain shown (N, C = ends). Where no end group is shown, it is not given here. [ ]: non-standard residue; d: D form. The star is where a group is joined. Palmitoyl = CCCCCCCCCCCCCCCC(=O)*; Chg = N[C@H](C(=O)O)C1CCCCC1; NMeA = CN[C@@H](C)C(=O)O

T1: β-catenin (UniProt P35222 134-665, limits assumed, biotinylated in the SPR and plate assays)
T1 sequence (looked up): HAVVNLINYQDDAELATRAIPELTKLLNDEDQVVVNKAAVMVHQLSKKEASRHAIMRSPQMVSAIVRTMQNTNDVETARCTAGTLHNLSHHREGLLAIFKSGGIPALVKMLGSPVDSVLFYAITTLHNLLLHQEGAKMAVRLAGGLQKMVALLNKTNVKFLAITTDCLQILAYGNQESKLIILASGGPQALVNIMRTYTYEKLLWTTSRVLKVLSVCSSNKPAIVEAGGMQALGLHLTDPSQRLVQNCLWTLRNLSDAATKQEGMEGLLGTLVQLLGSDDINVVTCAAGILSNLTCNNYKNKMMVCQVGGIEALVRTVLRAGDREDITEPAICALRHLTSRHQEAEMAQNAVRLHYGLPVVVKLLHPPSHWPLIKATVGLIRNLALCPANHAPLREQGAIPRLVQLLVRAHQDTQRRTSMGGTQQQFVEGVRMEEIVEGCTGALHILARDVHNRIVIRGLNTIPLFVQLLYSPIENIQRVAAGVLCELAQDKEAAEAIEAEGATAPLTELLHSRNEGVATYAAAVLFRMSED

B1: SEQ ID NO: 49 (peptide)
peptide: H-MWFLISFWRG-OH
B2: SEQ ID NO: 454 (peptide)
peptide: WAQKILNDHGQAV
HELM: PEPTIDE1{[CCCCCCCCCCCCCCCC(=O)[*:2]].W.[meA].Q.K.I.L.N.D.H.[O=C([C@@H](N[*:1])C1CCCCC1)[*:2]].Q.A.V.[am]}$PEPTIDE1,PEPTIDE1,5:R3-9:R3$$$V2.0
SMILES: CCCCCCCCCCCCCCCC(=O)N[C@@H](Cc1c[nH]c2ccccc12)C(=O)N(C)[C@@H](C)C(=O)N[C@@H](CCC(N)=O)C(=O)N[C@H]1CCCCNC(=O)C[C@@H](C(=O)N[C@@H](Cc2c[nH]cn2)C(=O)N[C@H](C(=O)N[C@@H](CCC(N)=O)C(=O)N[C@@H](C)C(=O)N[C@H](C(N)=O)C(C)C)C2CCCCC2)NC(=O)[C@H](CC(N)=O)NC(=O)[C@H](CC(C)C)NC(=O)[C@H]([C@@H](C)CC)NC1=O
B3: SEQ ID NO: 485 (peptide)
peptide: Ac-PQKILDEHVQRVMK-NH2
modifications: bridge 3-7; also: K3* and E7* marked (linkage not given here)
B4: SEQ ID NO: 44 (peptide)
peptide: H-MSRMWFLISFWTG-OH
B5: SEQ ID NO: 453 (peptide)
peptide: WAQKILNDHGQAV
HELM: PEPTIDE1{[CCCCCCCCCCCC(=O)[*:2]].W.[meA].Q.K.I.L.N.D.H.[O=C([C@@H](N[*:1])C1CCCCC1)[*:2]].Q.A.V.[am]}$PEPTIDE1,PEPTIDE1,5:R3-9:R3$$$V2.0
SMILES: CCCCCCCCCCCC(=O)N[C@@H](Cc1c[nH]c2ccccc12)C(=O)N(C)[C@@H](C)C(=O)N[C@@H](CCC(N)=O)C(=O)N[C@H]1CCCCNC(=O)C[C@@H](C(=O)N[C@@H](Cc2c[nH]cn2)C(=O)N[C@H](C(=O)N[C@@H](CCC(N)=O)C(=O)N[C@@H](C)C(=O)N[C@H](C(N)=O)C(C)C)C2CCCCC2)NC(=O)[C@H](CC(N)=O)NC(=O)[C@H](CC(C)C)NC(=O)[C@H]([C@@H](C)CC)NC1=O
B6: SEQ ID NO: 51 (peptide)
peptide: H-MSRMWILISFWG-OH
B7: SEQ ID NO: 486 (peptide)
peptide: PQKILDEHVQRVMK-NH2
modifications: bridge 3-7; not fully specified (N-terminus); printed as H23C11C(O)-PQK*ILDE*HVQRVMK-NH2; also: K3* and E7* marked (linkage not given here)
B8: SEQ ID NO: 489 (peptide)
peptide: PQKILDEH[Chg]QRVMK-NH2
modifications: lactam 3-7; not fully specified (N-terminus); printed as H23C11C(O)-PQK*ILDE*H-Chg-QRVMK-NH2
B9: SEQ ID NO: 477 (peptide)
peptide: W[NMeA]QKILDEH[Chg]EAVWK
modifications: lactam 11-15, 4-8 (inferred); not fully specified (N-terminus); printed as H23C11C(O)-NH-W-NMeA-QK*ILDE*H-Chg-E*AVWK*
B10: SEQ ID NO: 46 (peptide)
peptide: H-MSRMWFLICFWG-OH
B11: SEQ ID NO: 456 (peptide)
peptide: WXQKILNDHGQRVW
HELM: PEPTIDE1{[CCCCCCCCCCCC(=O)[*:2]].W.[Aib].Q.K.I.L.N.D.H.[O=C([C@@H](N[*:1])C1CCCCC1)[*:2]].Q.R.V.W.[am]}$PEPTIDE1,PEPTIDE1,5:R3-9:R3$$$V2.0
SMILES: CCCCCCCCCCCC(=O)N[C@@H](Cc1c[nH]c2ccccc12)C(=O)NC(C)(C)C(=O)N[C@@H](CCC(N)=O)C(=O)N[C@H]1CCCCNC(=O)C[C@@H](C(=O)N[C@@H](Cc2c[nH]cn2)C(=O)N[C@H](C(=O)N[C@@H](CCC(N)=O)C(=O)N[C@@H](CCCNC(=N)N)C(=O)N[C@H](C(=O)N[C@@H](Cc2c[nH]c3ccccc23)C(N)=O)C(C)C)C2CCCCC2)NC(=O)[C@H](CC(N)=O)NC(=O)[C@H](CC(C)C)NC(=O)[C@H]([C@@H](C)CC)NC1=O
B12: SEQ ID NO: 476 (peptide)
peptide: Ac-W[NMeA]QKILDEH[Chg]EAVWK
modifications: lactam 11-15, 4-8 (inferred)
B13: SEQ ID NO: 490 (peptide)
peptide: Palmitoyl-PQKILDEH[Chg]QRVMK-NH2
modifications: bridge 3-7; also: K3* and E7* marked (linkage not given here)
B14: SEQ ID NO: 488 (peptide)
peptide: Ac-PQKILDEH[Chg]QRVMK-NH2
modifications: lactam 3-7
B15: SEQ ID NO: 487 (peptide)
peptide: Palmitoyl-PQKILDEHVQRVMK-NH2
modifications: bridge 3-7; also: K3* and E7* marked (linkage not given here)
B16: SEQ ID NO: 263 (peptide)
peptide: Ac-WILIAFWG-OH
B17: SEQ ID NO: 415 (peptide)
peptide: WAQKILDEHGSRVWG
HELM: PEPTIDE1{W.[meA].Q.K.I.L.D.E.H.[O=C([C@@H](N[*:1])C1CCCCC1)[*:2]].S.R.V.W.G.[am]}$PEPTIDE1,PEPTIDE1,4:R3-8:R3$$$V2.0
SMILES: CC[C@H](C)[C@@H]1NC(=O)[C@@H](NC(=O)[C@H](CCC(N)=O)NC(=O)[C@H](C)N(C)C(=O)[C@@H](N)Cc2c[nH]c3ccccc23)CCCCNC(=O)CC[C@@H](C(=O)N[C@@H](Cc2c[nH]cn2)C(=O)N[C@H](C(=O)N[C@@H](CO)C(=O)N[C@@H](CCCNC(=N)N)C(=O)N[C@H](C(=O)N[C@@H](Cc2c[nH]c3ccccc23)C(=O)NCC(N)=O)C(C)C)C2CCCCC2)NC(=O)[C@H](CC(=O)O)NC(=O)[C@H](CC(C)C)NC1=O
B18: SEQ ID NO: 7 (peptide)
peptide: H-MWFLISFWA-OH
B19: SEQ ID NO: 249 (peptide)
peptide: KWFLICAWD
modifications: not fully specified; cyclo-H2N-K(Ahx*)WFLICAWD*-COOH
B20: SEQ ID NO: 13 (peptide)
peptide: H-MWALISFWG-OH
B21: SEQ ID NO: 11 (peptide)
peptide: H-MWFLASFWG-OH
B22: SEQ ID NO: 274 (peptide)
peptide: Ac-MWFLIAFWG-OH
B23: SEQ ID NO: 247 (peptide)
peptide: KWFLICAWD
modifications: not fully specified; cyclo-H2N-K(GABA*)WFLICAWD*-COOH
B24: SEQ ID NO: 240 (peptide)
peptide: MWILISFW
HELM: PEPTIDE1{[ac].M.W.I.L.I.S.F.W.[O=C(O)CCCN[*:1]]}$$$$V2.0
SMILES: CC[C@H](C)[C@H](NC(=O)[C@H](CC(C)C)NC(=O)[C@@H](NC(=O)[C@H](Cc1c[nH]c2ccccc12)NC(=O)[C@H](CCSC)NC(C)=O)[C@@H](C)CC)C(=O)N[C@@H](CO)C(=O)N[C@@H](Cc1ccccc1)C(=O)N[C@@H](Cc1c[nH]c2ccccc12)C(=O)NCCCC(=O)O
B25: SEQ ID NO: 243 (peptide)
peptide: KWFLIXAWD
HELM: PEPTIDE1{[ac].K.W.F.L.I.[Abu].A.W.D}$PEPTIDE1,PEPTIDE1,2:R3-10:R3$$$V2.0
SMILES: CC[C@@H]1NC(=O)[C@H]([C@@H](C)CC)NC(=O)[C@H](CC(C)C)NC(=O)[C@H](Cc2ccccc2)NC(=O)[C@H](Cc2c[nH]c3ccccc23)NC(=O)[C@@H](NC(C)=O)CCCCNC(=O)C[C@@H](C(=O)O)NC(=O)[C@H](Cc2c[nH]c3ccccc23)NC(=O)[C@H](C)NC1=O

Molecular target: T1, β-catenin
Assay: cell-based or functional assay

Binder	Wnt Reporter EC50
B1	≤ 7.5 µM
B2	≤ 7.5 µM
B3	> 30 µM
B4	> 15 µM and ≤ 22.5 µM
B5	≤ 7.5 µM
B6	> 7.5 µM and ≤ 15 µM
B7	> 30 µM
B8	> 15 µM and ≤ 22.5 µM
B9	≤ 7.5 µM
B10	≤ 7.5 µM
B11	≤ 7.5 µM
B12	> 7.5 µM and ≤ 15 µM
B13	≤ 7.5 µM
B14	≤ 7.5 µM
B15	≤ 7.5 µM

Molecular target: T1, β-catenin
Assay: competitive FP
Source text: Fluorescence polarization (FP) is another method used to analyze protein-ligand interactions. This methodology measures the change in fluorescence light emitted by a labelled compound free vs. conjugated to another compound in solution. Upon binding of the fluorescent molecule to a complex, polarization increases because of limited rotation of the fluorescent tracer. Competitive FP is often utilized in drug screens as it is formatted for high throughput screens in a plate format. This immunoassay is performed by introducing a non-conjugated drug to compete for binding to the labelled competitor-ligand complex, leading to a reduction in polarization. […] Exemplary methodology is described in Example 13. Data were analyzed and plotted in Microsoft Excel (Microsoft, Redmond, WA).
Varying concentrations of β-catenin inhibitor candidate (SEQ ID NO: 404) were then added in a series of serial dilutions from 10 nM to 30 uM of inhibitor in different wells of the plate. The fluorescence polarization was read by Infinite M1000 (Tecan, Baldwin Park CA) at excitation wavelength of 470 nm and measured at emission wavelength of 520 nm. […] The experiments were performed three times and data were analyzed and plotted in Microsoft Excel (Microsoft, Redmond, WA).

Binder	Kd
B16	> 0.4 µM and ≤ 1 µM
B17	≤ 0.4 µM
B18	> 10 µM and ≤ 30 µM
B19	> 0.4 µM and ≤ 1 µM
B20	> 0.4 µM and ≤ 1 µM
B21	> 0.4 µM and ≤ 1 µM
B22	≤ 0.4 µM
B23	≤ 0.4 µM
B24	≤ 0.4 µM
B25	> 10 µM and ≤ 30 µM
